{
  "source": "the supplement of paper PMC10567573",
  "parents": {"B1": {"name": "IRX6 (parent)", "chain": "YPCLEKPRIWSLAHTATASAVEGA"}},
  "data": [
    {"variants_of": "B1", "experiment": "protein stability index of a GFP-peptide fusion (GPS, HEK-293T) (PSI 1-6); higher = more stable", "settings": "c terminus: a fixed tail appended", "values": [
      {"variant": "YPCLEKPRNWSLAHTATASAVEGA", "note": "[I9N]", "protein stability index": 2.48},
      {"variant": "YPCLEKPRPWSLAHTATASAVEGA", "note": "[I9P]", "protein stability index": 2.35},
      {"variant": "YPCLEKPRQWSLAHTATASAVEGA", "note": "[I9Q]", "protein stability index": 2.28},
      {"variant": "YPCLEKPRRWSLAHTATASAVEGA", "note": "[I9R]", "protein stability index": 2.27},
      {"variant": "YPCLEKPRSWSLAHTATASAVEGA", "note": "[I9S]", "protein stability index": 1.65},
      {"variant": "YPCLEKPRTWSLAHTATASAVEGA", "note": "[I9T]", "protein stability index": 1.51},
      {"variant": "YPCLEKPRVWSLAHTATASAVEGA", "note": "[I9V]", "protein stability index": 3.31},
      {"variant": "YPCLEKPRYWSLAHTATASAVEGA", "note": "[I9Y]", "protein stability index": 2.3},
      {"variant": "YPCLEKPRIASLAHTATASAVEGA", "note": "[W10A]", "protein stability index": 4.14},
      {"variant": "YPCLEKPRICSLAHTATASAVEGA", "note": "[W10C]", "protein stability index": 3.19},
      {"variant": "YPCLEKPRIDSLAHTATASAVEGA", "note": "[W10D]", "protein stability index": 4.13},
      {"variant": "YPCLEKPRIESLAHTATASAVEGA", "note": "[W10E]", "protein stability index": 4.71},
      {"variant": "YPCLEKPRIFSLAHTATASAVEGA", "note": "[W10F]", "protein stability index": 1.98},
      {"variant": "YPCLEKPRIGSLAHTATASAVEGA", "note": "[W10G]", "protein stability index": 4},
      {"variant": "YPCLEKPRIHSLAHTATASAVEGA", "note": "[W10H]", "protein stability index": 4.23},
      {"variant": "YPCLEKPRIISLAHTATASAVEGA", "note": "[W10I]", "protein stability index": 3.27},
      {"variant": "YPCLEKPRIKSLAHTATASAVEGA", "note": "[W10K]", "protein stability index": 4.42},
      {"variant": "YPCLEKPRILSLAHTATASAVEGA", "note": "[W10L]", "protein stability index": 3.78},
      {"variant": "YPCLEKPRIMSLAHTATASAVEGA", "note": "[W10M]", "protein stability index": 3.65},
      {"variant": "YPCLEKPRINSLAHTATASAVEGA", "note": "[W10N]", "protein stability index": 4.27},
      {"variant": "YPCLEKPRIPSLAHTATASAVEGA", "note": "[W10P]", "protein stability index": 4.3},
      {"variant": "YPCLEKPRIQSLAHTATASAVEGA", "note": "[W10Q]", "protein stability index": 4.16},
      {"variant": "YPCLEKPRIRSLAHTATASAVEGA", "note": "[W10R]", "protein stability index": 4.26},
      {"variant": "YPCLEKPRISSLAHTATASAVEGA", "note": "[W10S]", "protein stability index": 4.42},
      {"variant": "YPCLEKPRITSLAHTATASAVEGA", "note": "[W10T]", "protein stability index": 4.09},
      {"variant": "YPCLEKPRIVSLAHTATASAVEGA", "note": "[W10V]", "protein stability index": 3.85},
      {"variant": "YPCLEKPRIYSLAHTATASAVEGA", "note": "[W10Y]", "protein stability index": 1.62},
      {"variant": "YPCLEKPRIWALAHTATASAVEGA", "note": "[S11A]", "protein stability index": 1.3},
      {"variant": "YPCLEKPRIWCLAHTATASAVEGA", "note": "[S11C]", "protein stability index": 1.61},
      {"variant": "YPCLEKPRIWDLAHTATASAVEGA", "note": "[S11D]", "protein stability index": 1.74},
      {"variant": "YPCLEKPRIWELAHTATASAVEGA", "note": "[S11E]", "protein stability index": 1.99},
      {"variant": "YPCLEKPRIWFLAHTATASAVEGA", "note": "[S11F]", "protein stability index": 1.94},
      {"variant": "YPCLEKPRIWHLAHTATASAVEGA", "note": "[S11H]", "protein stability index": 1.86},
      {"variant": "YPCLEKPRIWILAHTATASAVEGA", "note": "[S11I]", "protein stability index": 2.48},
      {"variant": "YPCLEKPRIWKLAHTATASAVEGA", "note": "[S11K]", "protein stability index": 2.58},
      {"variant": "YPCLEKPRIWLLAHTATASAVEGA", "note": "[S11L]", "protein stability index": 1.87},
      {"variant": "YPCLEKPRIWMLAHTATASAVEGA", "note": "[S11M]", "protein stability index": 1.82},
      {"variant": "YPCLEKPRIWNLAHTATASAVEGA", "note": "[S11N]", "protein stability index": 2.31},
      {"variant": "YPCLEKPRIWQLAHTATASAVEGA", "note": "[S11Q]", "protein stability index": 1.53},
      {"variant": "YPCLEKPRIWRLAHTATASAVEGA", "note": "[S11R]", "protein stability index": 2.05},
      {"variant": "YPCLEKPRIWVLAHTATASAVEGA", "note": "[S11V]", "protein stability index": 1.99},
      {"variant": "YPCLEKPRIWYLAHTATASAVEGA", "note": "[S11Y]", "protein stability index": 2.16},
      {"variant": "YPCLEKPRIWSCAHTATASAVEGA", "note": "[L12C]", "protein stability index": 3.12},
      {"variant": "YPCLEKPRIWSDAHTATASAVEGA", "note": "[L12D]", "protein stability index": 2.91},
      {"variant": "YPCLEKPRIWSEAHTATASAVEGA", "note": "[L12E]", "protein stability index": 1.7},
      {"variant": "YPCLEKPRIWSFAHTATASAVEGA", "note": "[L12F]", "protein stability index": 2.26},
      {"variant": "YPCLEKPRIWSGAHTATASAVEGA", "note": "[L12G]", "protein stability index": 2.03},
      {"variant": "YPCLEKPRIWSIAHTATASAVEGA", "note": "[L12I]", "protein stability index": 2.81},
      {"variant": "YPCLEKPRIWSKAHTATASAVEGA", "note": "[L12K]", "protein stability index": 2.72},
      {"variant": "YPCLEKPRIWSMAHTATASAVEGA", "note": "[L12M]", "protein stability index": 2.36},
      {"variant": "YPCLEKPRIWSNAHTATASAVEGA", "note": "[L12N]", "protein stability index": 1.72},
      {"variant": "YPCLEKPRIWSPAHTATASAVEGA", "note": "[L12P]", "protein stability index": 3.53},
      {"variant": "YPCLEKPRIWSQAHTATASAVEGA", "note": "[L12Q]", "protein stability index": 2.87},
      {"variant": "YPCLEKPRIWSRAHTATASAVEGA", "note": "[L12R]", "protein stability index": 2.19},
      {"variant": "YPCLEKPRIWSTAHTATASAVEGA", "note": "[L12T]", "protein stability index": 2.72},
      {"variant": "YPCLEKPRIWSVAHTATASAVEGA", "note": "[L12V]", "protein stability index": 1.58},
      {"variant": "YPCLEKPRIWSLDHTATASAVEGA", "note": "[A13D]", "protein stability index": 2.71},
      {"variant": "YPCLEKPRIWSLEHTATASAVEGA", "note": "[A13E]", "protein stability index": 2.17},
      {"variant": "YPCLEKPRIWSLGHTATASAVEGA", "note": "[A13G]", "protein stability index": 2.44},
      {"variant": "YPCLEKPRIWSLHHTATASAVEGA", "note": "[A13H]", "protein stability index": 2.74},
      {"variant": "YPCLEKPRIWSLIHTATASAVEGA", "note": "[A13I]", "protein stability index": 3.27},
      {"variant": "YPCLEKPRIWSLKHTATASAVEGA", "note": "[A13K]", "protein stability index": 2.9},
      {"variant": "YPCLEKPRIWSLMHTATASAVEGA", "note": "[A13M]", "protein stability index": 1.35},
      {"variant": "YPCLEKPRIWSLPHTATASAVEGA", "note": "[A13P]", "protein stability index": 2.35},
      {"variant": "YPCLEKPRIWSLQHTATASAVEGA", "note": "[A13Q]", "protein stability index": 2.46},
      {"variant": "YPCLEKPRIWSLTHTATASAVEGA", "note": "[A13T]", "protein stability index": 1.96},
      {"variant": "YPCLEKPRIWSLVHTATASAVEGA", "note": "[A13V]", "protein stability index": 3.26},
      {"variant": "YPCLEKPRIWSLYHTATASAVEGA", "note": "[A13Y]", "protein stability index": 3.33},
      {"variant": "YPCLEKPRIWSLADTATASAVEGA", "note": "[H14D]", "protein stability index": 2.01},
      {"variant": "YPCLEKPRIWSLAETATASAVEGA", "note": "[H14E]", "protein stability index": 1.84},
      {"variant": "YPCLEKPRIWSLAFTATASAVEGA", "note": "[H14F]", "protein stability index": 4.18},
      {"variant": "YPCLEKPRIWSLAITATASAVEGA", "note": "[H14I]", "protein stability index": 1.41},
      {"variant": "YPCLEKPRIWSLAKTATASAVEGA", "note": "[H14K]", "protein stability index": 1.66},
      {"variant": "YPCLEKPRIWSLALTATASAVEGA", "note": "[H14L]", "protein stability index": 3.94},
      {"variant": "YPCLEKPRIWSLAMTATASAVEGA", "note": "[H14M]", "protein stability index": 2.34},
      {"variant": "YPCLEKPRIWSLAPTATASAVEGA", "note": "[H14P]", "protein stability index": 2.48},
      {"variant": "YPCLEKPRIWSLAQTATASAVEGA", "note": "[H14Q]", "protein stability index": 2.52},
      {"variant": "YPCLEKPRIWSLASTATASAVEGA", "note": "[H14S]", "protein stability index": 2.18},
      {"variant": "YPCLEKPRIWSLAVTATASAVEGA", "note": "[H14V]", "protein stability index": 3.43},
      {"variant": "YPCLEKPRIWSLAHAATASAVEGA", "note": "[T15A]", "protein stability index": 2.74},
      {"variant": "YPCLEKPRIWSLAHCATASAVEGA", "note": "[T15C]", "protein stability index": 3.17},
      {"variant": "YPCLEKPRIWSLAHDATASAVEGA", "note": "[T15D]", "protein stability index": 2.85},
      {"variant": "YPCLEKPRIWSLAHGATASAVEGA", "note": "[T15G]", "protein stability index": 1.75},
      {"variant": "YPCLEKPRIWSLAHHATASAVEGA", "note": "[T15H]", "protein stability index": 3.31},
      {"variant": "YPCLEKPRIWSLAHIATASAVEGA", "note": "[T15I]", "protein stability index": 1.72},
      {"variant": "YPCLEKPRIWSLAHKATASAVEGA", "note": "[T15K]", "protein stability index": 3.51},
      {"variant": "YPCLEKPRIWSLAHLATASAVEGA", "note": "[T15L]", "protein stability index": 1.12},
      {"variant": "YPCLEKPRIWSLAHRATASAVEGA", "note": "[T15R]", "protein stability index": 3.79},
      {"variant": "YPCLEKPRIWSLAHSATASAVEGA", "note": "[T15S]", "protein stability index": 2.26},
      {"variant": "YPCLEKPRIWSLAHWATASAVEGA", "note": "[T15W]", "protein stability index": 2.34},
      {"variant": "YPCLEKPRIWSLAHTCTASAVEGA", "note": "[A16C]", "protein stability index": 2.12},
      {"variant": "YPCLEKPRIWSLAHTDTASAVEGA", "note": "[A16D]", "protein stability index": 1.89},
      {"variant": "YPCLEKPRIWSLAHTETASAVEGA", "note": "[A16E]", "protein stability index": 4.29},
      {"variant": "YPCLEKPRIWSLAHTFTASAVEGA", "note": "[A16F]", "protein stability index": 5.06}
    ]}
  ]
}
